Data: the supplement of paper PMC7125110
± gives the standard error. Variants at the floor of the assay were thinned out.

B1: glmS ribozyme (parent)
chain: AUAAAAGCGCCAGAACUACAGAAAUGUAGUUGACGAGGAGGAGGUUUAUCGAAUUUUCGGCGGAUGCCUCCAAA

Tests used:
Conditions in all cases: with glucosamine-6-phosphate
[1] = variants of: B1; assay: self-cleavage kobs at 640 uM GlcN6P; higher = faster cleavage; RNA array
Summary of the method: (§1)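 Weighted Michaelis–Menten fits across concentrations supplied kcat and KM, based on kobs from one- or two-exponential decay fits to normalised per-tile medians. The data came from barcoded ribozyme variants transcribed in situ by E. coli RNA polymerase on sequenced MiSeq chips and tracked at 37 °C by a hybridised Cy3 probe. Glucosamine-6-phosphate (40 μM to 10 mM) in HEPES/KCl/Mg(OAc)2 buffer was flowed in.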

[2] = variants of: B1; assay: self-cleavage kobs at 2500 uM GlcN6P; higher = faster cleavage; RNA array
Summary of the method: as §1

[3] = variants of: B1; assay: self-cleavage kobs at 10000 uM GlcN6P; higher = faster cleavage; RNA array
Summary of the method: as §1

Variant	self-cleavage kobs at 640 uM GlcN6P [1]	self-cleavage kobs at 2500 uM GlcN6P [2]	self-cleavage kobs at 10000 uM GlcN6P [3]
G13A U56A C67A U69G	0.000128 ± 3.8e-05 s⁻¹	–	–
C8U G66C C71G	< 1e-05 s⁻¹	–	–
C11U U30C C71A	0.000112 ± 2.4e-05 s⁻¹	6.85e-05 ± 2.1e-05 s⁻¹	–
G40U G43U G51C U65C	< 1e-05 s⁻¹	–	–
C8G A33C U55G G62U C67A	< 1e-05 s⁻¹	< 1e-05 s⁻¹	–
G9A G51U A52C	< 1e-05 s⁻¹	< 1e-05 s⁻¹	–
A42U A53U G59C G62C	< 1e-05 s⁻¹	< 1e-05 s⁻¹	–
G41A C58U C70G	< 1e-05 s⁻¹	< 1e-05 s⁻¹	–
A14G G32C G63C G66U U69G	< 1e-05 s⁻¹	< 1e-05 s⁻¹	–
G9A G44C C68U U69A	< 1e-05 s⁻¹	–	–
U49A U55C C71G	< 1e-05 s⁻¹	–	–
G51U G62U C70U	< 1e-05 s⁻¹	–	–
U30C G32U U47A	0.000115 ± 3.3e-05 s⁻¹	0.000106 ± 3e-05 s⁻¹	–
G9U C11U U30G	< 1e-05 s⁻¹	–	–
U45A U54A G60A G66C	< 1e-05 s⁻¹	–	–
A12C U54C C71U	0.00422 ± 0.0017 s⁻¹	0.0234 ± 0.0081 s⁻¹	–
G13A A15U G35U G40C	< 1e-05 s⁻¹	–	–
U30A U55G C61U	< 1e-05 s⁻¹	–	< 1e-05 s⁻¹
C11U U54G C58A C67G	0.000225 ± 7.2e-05 s⁻¹	5.14e-05 ± 2e-05 s⁻¹	–
U45C A48U G60A	< 1e-05 s⁻¹	< 1e-05 s⁻¹	–
C10G A12U U46A	< 1e-05 s⁻¹	–	–
A6U C8U A15U G32C C34A C61G	< 1e-05 s⁻¹	–	–
A33U U54A G60C	< 1e-05 s⁻¹	< 1e-05 s⁻¹	–

Variant	self-cleavage kobs at 640 uM GlcN6P [1]	self-cleavage kobs at 2500 uM GlcN6P [2]	self-cleavage kobs at 10000 uM GlcN6P [3]
G7A C11A C34U A36C U45A	< 1e-05 s⁻¹	< 1e-05 s⁻¹	< 1e-05 s⁻¹
G9C U31C C67U	< 1e-05 s⁻¹	< 1e-05 s⁻¹	–
A14G G40U G41C	7.7e-05 ± 1.5e-05 s⁻¹	0.00015 ± 3.4e-05 s⁻¹	–
A12G G63A A64C	< 1e-05 s⁻¹	–	–
G32C G35U G59A	< 1e-05 s⁻¹	< 1e-05 s⁻¹	–
A6G C11U G60A C71U	< 1e-05 s⁻¹	< 1e-05 s⁻¹	–
G29C G38U A39U C50A	< 1e-05 s⁻¹	< 1e-05 s⁻¹	–
A6C G37U U49A	< 1e-05 s⁻¹	–	< 1e-05 s⁻¹
U46G U55G U69G	0.000454 ± 0.00015 s⁻¹	6.16e-05 ± 1.8e-05 s⁻¹	–
C11G C16A C50G U65G	0.000148 ± 5.2e-05 s⁻¹	–	–
G29C A42C A48C	< 1e-05 s⁻¹	–	–
G7C A12G U46G U47A	< 1e-05 s⁻¹	–	–
G13C U57C C58A	< 1e-05 s⁻¹	–	–
C50G U57A A64U	0.000127 ± 5.8e-05 s⁻¹	–	–
G44U G62U C68A	< 1e-05 s⁻¹	< 1e-05 s⁻¹	–
C8U G62A C70U	6.07e-05 ± 2.6e-05 s⁻¹	–	–
C50A C61G C68U	8.62e-05 ± 2.5e-05 s⁻¹	–	–
A6G C16A A52C	< 1e-05 s⁻¹	< 1e-05 s⁻¹	–
A6G G9U A64G	< 1e-05 s⁻¹	–	–
C16A U31C A33G C34A A52U C68U	< 1e-05 s⁻¹	–	–
G9A U30G A39U	< 1e-05 s⁻¹	–	–
U31G A36U G38U A48U A53C G59C A64C	< 1e-05 s⁻¹	–	–
U47G G51A A52G U65G	< 1e-05 s⁻¹	< 1e-05 s⁻¹	–

Variant	self-cleavage kobs at 640 uM GlcN6P [1]	self-cleavage kobs at 2500 uM GlcN6P [2]	self-cleavage kobs at 10000 uM GlcN6P [3]
A42U C70A C71G	< 1e-05 s⁻¹	–	–
G40C G41C C68A	< 1e-05 s⁻¹	–	–
C8U U45A A48U C50U	< 1e-05 s⁻¹	< 1e-05 s⁻¹	–
C11A U54A U55G G63U U65G	< 1e-05 s⁻¹	–	–
A14U G41A U45A	6.25e-05 ± 2.9e-05 s⁻¹	0.000195 ± 5.4e-05 s⁻¹	–
G9U A15C C67U	< 1e-05 s⁻¹	–	–
G7U A39C U57G G63C C68U	< 1e-05 s⁻¹	< 1e-05 s⁻¹	–
A6C G9C G32A C50U A53G	< 1e-05 s⁻¹	< 1e-05 s⁻¹	–
A14G G29U G38C U56C	< 1e-05 s⁻¹	–	–
C10U C50U A53C	< 1e-05 s⁻¹	–	–
G35C G38A	< 1e-05 s⁻¹	< 1e-05 s⁻¹	–
G7C G9C	< 1e-05 s⁻¹	< 1e-05 s⁻¹	–
C8A C16A A39U G59U	< 1e-05 s⁻¹	–	–
C8U U47G	< 1e-05 s⁻¹	–	< 1e-05 s⁻¹
A15G U54A G66C	0.000369 ± 9e-05 s⁻¹	0.000502 ± 9.7e-05 s⁻¹	–
G7U G13A G29U	< 1e-05 s⁻¹	< 1e-05 s⁻¹	< 1e-05 s⁻¹
C11U A15U C70G	0.000134 ± 4.8e-05 s⁻¹	–	–
G35C C67G C71G	< 1e-05 s⁻¹	–	–
A14C A15G G37C U49C	< 1e-05 s⁻¹	–	–
G9U A42U A48C C50G G63C C67U	< 1e-05 s⁻¹	–	–
C16A G32A C70G	7.42e-05 ± 3e-05 s⁻¹	–	0.000127 ± 3.4e-05 s⁻¹
C10G C11G A33U C68G	4.85e-05 ± 2.2e-05 s⁻¹	9.09e-05 ± 3.3e-05 s⁻¹	–
